This is an account of results in doi:10.1101/386532 (bioRxiv, 2018).

As usually defined, the Kd is the free concentration of one partner at which half of the binding sites on the other are occupied at equilibrium, for simple one-to-one binding. Lower therefore signals a tighter complex.

T1: GST-CHMP1B(4–199) (WT) (human, UniProt Q7LBR1 4-199)
T1 sequence (looked up): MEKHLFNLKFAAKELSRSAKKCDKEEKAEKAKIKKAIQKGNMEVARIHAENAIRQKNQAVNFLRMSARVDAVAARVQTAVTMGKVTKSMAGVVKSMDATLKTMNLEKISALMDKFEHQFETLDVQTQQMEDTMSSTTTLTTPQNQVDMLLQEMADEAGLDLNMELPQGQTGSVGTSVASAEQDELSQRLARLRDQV

B1: IST1(1–189) (IST1NTD) (domain or fragment, human, UniProt P53990 1-189, looked up)
chain: MLGSGFKAERLRVNLRLVINRLKLLEKKKTELAQKARKEIADYLAAGKDERARIRVEHIIREDYLVEAMEILELYCDLLLARFGLIQSMKELDSGLAESVSTLIWAAPRLQSEVAELKIVADQLCAKYSKEYGKLCRTNQIGTVNDRLMHKLSVEAPPKILVERYLIEIAKNYNVPYEPDSVVMAEAPP
B2: GST-CHMP1Bα6 (CHMP1B MIM1 element alone, residues 186–199) (peptide, UniProt Q7LBR1 186-199, looked up)
chain: DELSQRLARLRDQV
B3: CHMP1B(4–199) for structure determination (from His-SUMO fusion) (natural protein, human, UniProt Q7LBR1 4-199, looked up)
chain: T1 sequence (looked up)

Series [1] concerns the molecule itself. Briefly: negative stain EM of filament assembly.
The next series has as its target T1, GST-CHMP1B(4–199) (WT). The series is described as follows: SPR. In general terms: In SPR one partner is held on a chip, and binding of the other changes the refractive index at the surface.
In the series “IST1(1–189) (IST1NTD)” the target is B1. The series is described as follows: SPR.
The series “cryo-EM structure” deals with the molecule itself. Briefly: cryo-EM structure.

As to B1, in series [1], the binding result is on record as “binds”. The affinity with GST-CHMP1B(4–199) (WT), expressed as Kd, was 92 µM.

Molecule B2 had a Kd with IST1(1–189) (IST1NTD) of 91 µM.

B3: the binding result in “cryo-EM structure” is on record as “binds”.
